Data published in the supplement of paper PMC10567573.

B1: MGC27345 (parent)
chain: KYMPHLCQDSSGEVSCQCQLHPPR

Variants of: B1
Test: protein stability index of a GFP-peptide fusion (GPS, HEK-293T) (PSI 1-6); higher = more stable
Conditions: c terminus: a fixed tail appended
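Also: lentivirally expressed fusions sorted by FACS into six bins by GFP to DsRed ratio, PSI derived from sequencing read proportions per bin multiplied by bin number.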

Variant	protein stability index
KYMPHLCQDSSGEISCQCQLHPPR [V14I]	2.48
KYMPHLCQDSSGEQSCQCQLHPPR [V14Q]	2.67
KYMPHLCQDSSGEMSCQCQLHPPR [V14M]	2.23
KYMPHLCQDSSGEPSCQCQLHPPR [V14P]	2.45
KYMPHLCQDSSGEESCQCQLHPPR [V14E]	3.31
KYMPHLCQDSSGEKSCQCQLHPPR [V14K]	2.64
KYMPHLCQDSSGEGSCQCQLHPPR [V14G]	3.14
KYMPHLCQDSSGENSCQCQLHPPR [V14N]	2.46
KYMPHLCQDSSGECSCQCQLHPPR [V14C]	2.94
KYMPHLCQDSSGEFSCQCQLHPPR [V14F]	1.94
KYMPHLCQDSSGEASCQCQLHPPR [V14A]	3.06
KYMPHLCQDSSGELSCQCQLHPPR [V14L]	1.97
KYMPHLCQDSSGEDSCQCQLHPPR [V14D]	2.25
KYMPHLCQDSSGEHSCQCQLHPPR [V14H]	2.48
KYMPHLCQYSSGEVSCQCQLHPPR [D9Y]	1.67
KYMPHLCQWSSGEVSCQCQLHPPR [D9W]	1.52
KYMPHLCQASSGEVSCQCQLHPPR [D9A]	2.73
KYMPHLCQLSSGEVSCQCQLHPPR [D9L]	2.18
KYMPHLCQGSSGEVSCQCQLHPPR [D9G]	2.56
KYMPHLCQPSSGEVSCQCQLHPPR [D9P]	1.42
KYMPHLCQHSSGEVSCQCQLHPPR [D9H]	2.38
KYMPHLCQKSSGEVSCQCQLHPPR [D9K]	2.43
KYMPHLCQFSSGEVSCQCQLHPPR [D9F]	2.47
KYMPHLCQCSSGEVSCQCQLHPPR [D9C]	2.97

Variant	protein stability index
KYMPHLCQSSSGEVSCQCQLHPPR [D9S]	1.82
KYMPHLCQESSGEVSCQCQLHPPR [D9E]	3.09
KYMPHLCQMSSGEVSCQCQLHPPR [D9M]	2.15
KYMPHLCQNSSGEVSCQCQLHPPR [D9N]	1.98
KYMPHLCQTSSGEVSCQCQLHPPR [D9T]	2.14
KYMPHLCQISSGEVSCQCQLHPPR [D9I]	1.51
KYMPHLCQRSSGEVSCQCQLHPPR [D9R]	1.89
KYMPHLCQDSSGNVSCQCQLHPPR [E13N]	1.75
KYMPHLCQDSSGLVSCQCQLHPPR [E13L]	2.07
KYMPHLCQDSSGSVSCQCQLHPPR [E13S]	2.26
KYMPHLCQDSSGVVSCQCQLHPPR [E13V]	1.78
KYMPHLCQDSSGWVSCQCQLHPPR [E13W]	1.03
KYMPHLCQDSSGDVSCQCQLHPPR [E13D]	2.57
KYMPHLCQDSSGKVSCQCQLHPPR [E13K]	2.21
KYMPHLCQDSSGYVSCQCQLHPPR [E13Y]	1.54
KYMPHLCQDSSGRVSCQCQLHPPR [E13R]	2.44
KYMPHLCQDSSGTVSCQCQLHPPR [E13T]	2.22
KYMPHLCQDSSGAVSCQCQLHPPR [E13A]	2.3
KYMPHLCQDSSGQVSCQCQLHPPR [E13Q]	1.74
KYMPHLCQDSSGPVSCQCQLHPPR [E13P]	2.31
KYMPHLCQDSSGHVSCQCQLHPPR [E13H]	2.05
KYMPHLCQDSSGCVSCQCQLHPPR [E13C]	2.14
KYMPHLCQDSSGFVSCQCQLHPPR [E13F]	1.71
KYMPHLCQDSSGIVSCQCQLHPPR [E13I]	1.99

Variant	protein stability index
KYMPHLCQDSSGMVSCQCQLHPPR [E13M]	1.89
KYMPHLFQDSSGEVSCQCQLHPPR [C7F]	2.21
KYMPHLSQDSSGEVSCQCQLHPPR [C7S]	1.47
KYMPHLWQDSSGEVSCQCQLHPPR [C7W]	1.75
KYMPHLYQDSSGEVSCQCQLHPPR [C7Y]	1.63
KYMPHLIQDSSGEVSCQCQLHPPR [C7I]	1.79
KYMPHLMQDSSGEVSCQCQLHPPR [C7M]	2.11
KYMPHLPQDSSGEVSCQCQLHPPR [C7P]	1.77
KYMPHLAQDSSGEVSCQCQLHPPR [C7A]	1.47
KYMPHLNQDSSGEVSCQCQLHPPR [C7N]	1.27
KYMPHLTQDSSGEVSCQCQLHPPR [C7T]	1.53
KYMPHLHQDSSGEVSCQCQLHPPR [C7H]	1.85
KYMPHLQQDSSGEVSCQCQLHPPR [C7Q]	2.1
KYMPHLDQDSSGEVSCQCQLHPPR [C7D]	2.11
KYMPHLLQDSSGEVSCQCQLHPPR [C7L]	1.85
KYMPHLGQDSSGEVSCQCQLHPPR [C7G]	3.13
KYMPHLEQDSSGEVSCQCQLHPPR [C7E]	1.77
KYMPHLKQDSSGEVSCQCQLHPPR [C7K]	1.9
KYMPHLRQDSSGEVSCQCQLHPPR [C7R]	3.06
KYMSHLCQDSSGEVSCQCQLHPPR [P4S]	1.71
KYMGHLCQDSSGEVSCQCQLHPPR [P4G]	1.62
KYMKHLCQDSSGEVSCQCQLHPPR [P4K]	1.58
KYMRHLCQDSSGEVSCQCQLHPPR [P4R]	1.9
KYMWHLCQDSSGEVSCQCQLHPPR [P4W]	1.67

Variant	protein stability index
KYMTHLCQDSSGEVSCQCQLHPPR [P4T]	1.98
KYMMHLCQDSSGEVSCQCQLHPPR [P4M]	2.54
KYMVHLCQDSSGEVSCQCQLHPPR [P4V]	2.81
KYMIHLCQDSSGEVSCQCQLHPPR [P4I]	1.49
KYMNHLCQDSSGEVSCQCQLHPPR [P4N]	1.78
KYMYHLCQDSSGEVSCQCQLHPPR [P4Y]	2.15
KYMQHLCQDSSGEVSCQCQLHPPR [P4Q]	1.99
KYMHHLCQDSSGEVSCQCQLHPPR [P4H]	1.69
KYMLHLCQDSSGEVSCQCQLHPPR [P4L]	1.7
KYMPHLCQDSLGEVSCQCQLHPPR [S11L]	2.04
KYMPHLCQDSVGEVSCQCQLHPPR [S11V]	1.45
KYMPHLCQDSEGEVSCQCQLHPPR [S11E]	2.42
KYMPHLCQDSYGEVSCQCQLHPPR [S11Y]	1.52
KYMPHLCQDSWGEVSCQCQLHPPR [S11W]	1.28
KYMPHLCQDSRGEVSCQCQLHPPR [S11R]	1.66
KYMPHLCQDSDGEVSCQCQLHPPR [S11D]	2.13
KYMPHLCQDSAGEVSCQCQLHPPR [S11A]	2.53
KYMPHLCQDSFGEVSCQCQLHPPR [S11F]	1.58
KYMPHLCQDSNGEVSCQCQLHPPR [S11N]	2.55
KYMPHLCQDSKGEVSCQCQLHPPR [S11K]	2.28
KYMPHLCQDSMGEVSCQCQLHPPR [S11M]	2.12
KYMPHLCQDSHGEVSCQCQLHPPR [S11H]	2.16
